Data set [1] deals with T1, CsBES1.2-MBP (Camellia sinensis (cDNA from cv. …, UniProt UPI0010362774 1-322)).
T1 sequence: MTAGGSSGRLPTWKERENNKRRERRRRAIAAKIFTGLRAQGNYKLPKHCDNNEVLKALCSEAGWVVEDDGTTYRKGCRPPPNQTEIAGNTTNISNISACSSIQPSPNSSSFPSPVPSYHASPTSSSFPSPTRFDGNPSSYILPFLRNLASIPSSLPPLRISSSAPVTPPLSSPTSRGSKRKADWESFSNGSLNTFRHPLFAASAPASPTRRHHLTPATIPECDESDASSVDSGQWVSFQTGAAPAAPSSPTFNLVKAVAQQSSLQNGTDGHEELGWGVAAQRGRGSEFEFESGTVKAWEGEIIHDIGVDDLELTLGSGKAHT
As to the kind of experiment: EMSA; weaker than P2 E-box probe per text; Beyotime Chemiluminescent EMSA Kit; 6.5% polyacrylamide gel, 60 V 65 min; binding buffer, salt, pH and temperature not stated. To be noted: protein: recombinant; tags: MBP (pMAL-c5x); label: 5' biotin (probe); blunt.

Data set [2] has as its target T1, CsBES1.2-MBP. As to the kind of experiment: EMSA; outcompeted by unlabeled probe; stronger than P1 per text; Beyotime Chemiluminescent EMSA Kit; 6.5% polyacrylamide gel, 60 V 65 min; binding buffer, salt, pH and temperature not stated. The conditions noted are these: protein: recombinant; tags: MBP (pMAL-c5x); label: 5' biotin (probe); blunt. A general note: Mobility shift assays separate free from complexed probe on a gel.

Data set [3] has as its target T1, CsBES1.2-MBP. As to the kind of experiment: competition; unlabeled mutant vs biotin-P2 probe; did not outcompete; Beyotime Chemiluminescent EMSA Kit; 6.5% polyacrylamide gel, 60 V 65 min; binding buffer, salt, pH and temperature not stated. The conditions noted are these: protein: recombinant; tags: MBP (pMAL-c5x); label: unlabeled; blunt.

B1: CsEXL3 promoter P1 (BRRE-box) probe (dsDNA)
DNA 1: GCGAGGCGACGAGGCGGAGG
DNA 2: CCTCCGCCTCGTCGCCTCGC
B1: in the data set with CsBES1.2-MBP [1], the binding result is listed as “binds”.

B2: CsEXL3 promoter P2 (E-box) probe (dsDNA)
DNA 1: TGAATCCCACGTGTGCAGAACT
DNA 2: AGTTCTGCACACGTGGGATTCA
Turning to B2, the binding result with CsBES1.2-MBP [2] is given as “binds”.

B3: Mutant CsEXL3 promoter P2 competitor (dsDNA)
DNA 1: TGAATCCAAAAAATGCAGAACT
DNA 2: AGTTCTGCATTTTTTGGATTCA
Take B3: the binding result in the data set with CsBES1.2-MBP [3] is listed as “no binding”.

Source of the values: PMC11088715, “CsEXL3 regulate mechanical harvest-related droopy leaves under the transcriptional activation of CsBES1.2 in tea plant”.
